# Measured values taken from PMC3987992.
# How the values were obtained:
# Experiment in all cases: BLI
# [1] = target: the same heavy chain paired with four different light chains
# [2] = target: a panel of eight affinity-matured monoclonal antibodies against the same HIV-1 gp120 antigen but with different epitopes
# [3] = target: four VH/VL combinations (the same germline light chain paired with three different heavy chains)
# CR9114 Fab (human) = target: CR9114 Fab (human)
# PGT135 Fab (human) = target: PGT135 Fab (human)
binder,measurement,setting,value
"recombinant Protein M TD, residues 74-468 (domain or fragment) SLSLNDGSYQSEIDLSGGANFREKFRNFANELSEAITNSPKGLDRPVPKTEISGLIKTGDNFITPSFKAGYYDHVASDGSLLSYYQSTEYFNNRVLMPILQTTNGTLMANNRGYDDVFRQVPSFSGWSNTKATTVSTSNNLTYDKWTYFAAKGSPLYDSYPNHFFEDVKTLAIDAKDISALKTTIDSEKPTYLIIRGLSGNGSQLNELQLPESVKKVSLYGDYTGVNVAKQIFANVVELEFYSTSKANSFGFNPLVLGSKTNVIYDLFASKPFTHIDLTQVTLQNSDNSAIDANKLKQAVGDIYNYRRFERQFQGYFAGGYIDKYLVKNVNTNKDSDDDLVYRSLKELNLHLEEAYREGDNTYYRVNENYYPGASIYENERASRDSEFQNEILKR",Kd,[1],1.8 to 2.3 nM
same,Kd,[2],0.7 to 3.8 nM
same,Kd,[3],2.1 to 4.8 nM
same,Kd,CR9114 Fab (human),1.9 nM
same,Kd,PGT135 Fab (human),3.7 nM
